One may read the inhibition as the drop in the measured response relative to a control, in per cent. The low end stands for little suppression, the high end for strong suppression.

These results are taken from US20220204610A1, “PROTEIN BINDERS FOR IRHOM2” (NEW YORK SOCIETY FOR THE RELIEF OF THE RUPTURED AND …, priority 2019, published 2022).

Primed or numbered codes have the meaning given here. Where no end group is shown, it is not given here. Side-chain parts run from the residue outwards. [ ]: non-standard residue; d: D form. The star is where a group is joined. PEG(11) = undeca(ethylene glycol) spacer (11 ethylene glycol units) between biotin and maleimide; Biotin = O=C1N[C@H]2[C@H](CS[C@H]2CCCCC(=O)*)N1; PEG11′ = not defined here; Abu = CC[C@H](N)C(=O)O

The subject of experiment [1] is LPS-induced release of endogenous TNFα from human THP-1 macrophage cells. The experiment can be described thus: ELISA-based TNFα release assay with purified antibody (Example 11). Format: cell-based. The conditions noted are these: Homo sapiens; positive control at 10 μM final; THP-1 cells; LPS 50 ng/ml, 2 hours. Here is the method: In the following study, ELISA-based TNFα release assays were performed to verify the inhibitory effects of the purified antibody 4H8-E3 of the invention on LPS-induced release of endogenous TNFα from human THP-1 macrophage cells.
In brief, on day 1, Nunc black MaxiSorp® 96-well plates (Thermo Fisher Scientific, USA) were coated overnight with 100 μl per well of mouse anti-human TNFα capture antibody (provided as part of the DuoSet ELISA kit) at 4 μg/ml TBS at 4° C. On day 2, the capture antibody solution was removed and MaxiSorp® plates were blocked with 300 μl per well of TBS, 1% BSA at room temperature for 3 hours. […] Using an infinite M1000 PRO (Tecan Group, Switzerland) microplate reader, the fluorescence of each well was collected at an excitation wavelength of 435 nm and an emission wavelength of 555 nm.
Background: An ELISA detects its analyte on a solid surface through an enzyme-linked reagent.

In experiment [2] the target is T1, human iRhom2 (inactive rhomboid protein 2, isoform 1, NP_078875.4) (human, UniProt Q6PJF5 1-856).
T1 sequence: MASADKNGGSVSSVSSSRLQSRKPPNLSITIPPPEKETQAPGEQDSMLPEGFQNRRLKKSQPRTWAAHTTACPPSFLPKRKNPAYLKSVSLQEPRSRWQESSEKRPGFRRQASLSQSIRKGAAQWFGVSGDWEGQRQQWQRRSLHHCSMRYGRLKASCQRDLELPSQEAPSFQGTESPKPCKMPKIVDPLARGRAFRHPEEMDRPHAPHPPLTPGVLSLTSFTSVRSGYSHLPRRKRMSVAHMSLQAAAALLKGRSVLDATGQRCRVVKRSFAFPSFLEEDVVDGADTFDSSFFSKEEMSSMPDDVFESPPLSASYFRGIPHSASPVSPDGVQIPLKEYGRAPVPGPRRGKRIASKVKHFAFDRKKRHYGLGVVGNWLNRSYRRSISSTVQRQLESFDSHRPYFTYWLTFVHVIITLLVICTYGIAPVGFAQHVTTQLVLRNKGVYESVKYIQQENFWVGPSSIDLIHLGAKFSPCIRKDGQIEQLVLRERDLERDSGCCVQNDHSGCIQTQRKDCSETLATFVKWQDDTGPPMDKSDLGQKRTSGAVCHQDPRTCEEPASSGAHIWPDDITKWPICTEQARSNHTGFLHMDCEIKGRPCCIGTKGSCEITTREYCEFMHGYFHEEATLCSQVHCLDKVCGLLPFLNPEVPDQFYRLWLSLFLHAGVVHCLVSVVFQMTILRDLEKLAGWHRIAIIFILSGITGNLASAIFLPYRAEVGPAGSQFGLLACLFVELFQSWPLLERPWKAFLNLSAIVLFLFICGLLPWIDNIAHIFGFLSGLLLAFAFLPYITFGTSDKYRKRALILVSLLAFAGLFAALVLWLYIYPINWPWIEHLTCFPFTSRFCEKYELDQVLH
In words: cell-based or functional assay.

The target of experiment [3] is T2, peptide 2b (human iRhom1 juxtamembrane domain of TMD1, AA428-449), biotinylated (human, biotin-PEG(11)-maleimide on the added C-terminal cysteine).
T2 peptide: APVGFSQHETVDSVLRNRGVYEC
In words: peptide binding ELISA, biotinylated peptide coated.

Experiment [4] addresses T3, peptide 1b (human iRhom1 juxtamembrane domain of TMD1, AA433-449), biotinylated (human).
T3 peptide: SQHETVDSVLRNRGVYEC([maleimide-PEG(11)-Biotin])
The experiment can be described thus: peptide binding ELISA, biotinylated peptide coated.

Experiment [5] concerns the target T4, peptide 9 (human iRhom2 C-terminus, AA819-839), biotinylated (human, X (position 20) = aminobutyrate in place of the internal cysteine; biotin-PEG(11)-maleimide on the added C-terminal cysteine).
T4 construct: also called immunization peptide 9
T4 peptide: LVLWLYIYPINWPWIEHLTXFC
The experiment can be described thus: peptide binding ELISA, biotinylated peptide coated.

The target of experiment [6] is T5, peptide 6 (human iRhom2 loop 1, AA508-548), biotinylated (human, not fully specified; X (position 9) = aminobutyrate in place of the internal cysteine; biotin-PEG(11)-maleimide on the natural terminal cysteine).
T5 construct: also called immunization peptide 6
T5 peptide: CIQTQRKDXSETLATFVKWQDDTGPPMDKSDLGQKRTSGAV
The experiment can be described thus: peptide binding ELISA, biotinylated peptide coated.

In experiment [7] the target is T6, peptide 7 (human iRhom2 loop 1, AA578-600), biotinylated (human, X (position 16) = aminobutyrate in place of the internal cysteine; biotin-PEG(11)-maleimide on the natural terminal cysteine).
T6 construct: also called immunization peptide 7
T6 peptide: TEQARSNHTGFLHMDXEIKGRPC
In words: peptide binding ELISA, biotinylated peptide coated.

The target in experiment [8] is T7, peptide 3b (human iRhom1 juxtamembrane domain of TMD1, AA433-461), biotinylated (human, biotin-PEG(11)-maleimide on the added C-terminal cysteine).
T7 peptide: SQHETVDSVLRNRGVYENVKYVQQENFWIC
The experiment can be described thus: peptide binding ELISA, biotinylated peptide coated.

The target in experiment [9] is T8, peptide 8 (human iRhom2 C-terminus, AA824-839), biotinylated (human).
T8 construct: also called immunization peptide 8
T8 peptide: YIYPINWPWIEHLT[Abu]FC([maleimide-PEG11′-Biotin])
The experiment can be described thus: peptide binding ELISA, biotinylated peptide coated.

In experiment [10] the target is T9, peptide 4b (human iRhom1 juxtamembrane domain of TMD1, AA428-461), biotinylated (human, biotin-PEG(11)-maleimide on the added C-terminal cysteine).
T9 peptide: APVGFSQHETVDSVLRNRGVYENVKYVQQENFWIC
In words: peptide binding ELISA, biotinylated peptide coated.

Experiment [11] deals with T10, peptide 10 (human iRhom2 C-terminus, AA824-856), biotinylated (human, oxidized to the cyclic disulfide; biotin-PEG(11)-maleimide on the added C-terminal cysteine).
T10 construct: also called immunization peptide 10
T10 peptide: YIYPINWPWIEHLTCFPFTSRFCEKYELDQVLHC
The experiment can be described thus: peptide binding ELISA, biotinylated peptide coated.

The target in experiment [12] is T11, peptide 11 (human iRhom2 C-terminus, AA819-856), biotinylated (human, oxidized to the cyclic disulfide; biotin-PEG(11)-maleimide on the added C-terminal cysteine).
T11 construct: also called immunization peptide 11
T11 peptide: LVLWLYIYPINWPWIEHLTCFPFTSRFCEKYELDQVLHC
In words: peptide binding ELISA, biotinylated peptide coated.

The target of experiment [13] is T12, peptide 5 (human iRhom2 loop 1, AA474-498), biotinylated (human, X (position 4) = aminobutyrate in place of the internal cysteine; biotin-PEG(11)-maleimide on the added N-terminal cysteine).
T12 construct: also called immunization peptide 5
T12 peptide: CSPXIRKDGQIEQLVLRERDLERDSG
In words: peptide binding ELISA, biotinylated peptide coated.

The molecule `CNC(=O)[C@H](Cc1ccccc1)NC(=O)[C@H](CC(C)C)[C@H](CSc1cccs1)C(=O)NO` [Batimastat, reference compound] came in with an inhibition at 10 µM in experiment [1] of 92.5%.

B1: antibody 4H8-E3 of the invention (antibody, V domains shown)
VH: EVQLQQSGPELVKPGASVKISCKASGYTFTDYYMNWVKQSHGKSLEWIGDINPNNGGTSYNQKFKGKATLTVDKSSNTAYMEFRSLTSEDSAVYYCARRGYYGVDYWGQGTTLTVSS
VL: NIVMTQSPKSMSMSVGERVTLNCKASENVGTYVSWYQQKPEQSPKLLIFGASNRYTGVPDRFIGSGFATDFTLTISSVQAEDLADYHCGQSYSYPYTFGGGTKLEIK
notes: Mouse monoclonal antibody purified from the supernatant of hybridoma sub-clone 4H8-E3; also called anti JMD1 antibody 4H8-E3; purified antibody 4H8-E3
As for B1, the “IC50 on LPS-induced release of endogenous TNFα from THP-1 cells” value in experiment [2] is 6.48 nM. The binding result in experiment [3], in experiment [4], in experiment [5], in experiment [6], in experiment [7] and in experiment [8] was “no binding (tested: 3 µg/ml)” throughout. Also, the binding result in experiment [9], in experiment [10], in experiment [11], in [12] and in experiment [13] was “no binding (tested: 3 µg/ml)” throughout.
